Molecular target: the molecule itself
Test: crystal structure

B1: N-terminally truncated NATA1 (19-228, NATA1Δ) (enzyme, Arabidopsis thaliana, UniProt Q9ZV05 19-228, looked up)
chain: TGHRMFSRIRLATPTDVPFIHKLIHQMAVFERLTHLFVATESGLASTLFNSRPFQAVTVFLLEISPSPFPTTHDASSPDFTPFLETHKVDLPIEDPDREKFLPDKLNDVVVAGFVLFFPNYPSFLAKQGFYIEDIFMREPYRRKGFGKLLLTAVAKQAVKLGVGRVEWIVIDWNVNAINFYEQMGAQVFKEWRLCRLTGDALQAIDKLNI
B1 was tested, and the “stoichiometry N” value was 2.

B2: N-terminally truncated NATA2 (30-236, NATA2Δ) (enzyme, Arabidopsis thaliana, UniProt Q9ZV06 30-236, looked up)
chain: MFSRIRLATPSDVPFIHKLIHQMAVFERLTHLFSATESGLASTLFTSRPFQSFTVFLLEVSRSPFPATITSSPSPDFTPFFKTHNLDLPIDDPESYNFSPDMLNDVVVAGFVLFFPNYSSFLSKPGFYIEDIFVREPYRRKGFGSMLLTAVAKQAVKMGYGRVEWVVLDWNVNAIKFYEQMGAQILQEWRVCRLTGDALEAFDQVNI
In the case of B2, the “stoichiometry N” value is reported as 2.

B3: full-length NATA2 (enzyme, Arabidopsis thaliana, UniProt Q9ZV06 1-236, looked up)
chain: MAAAAPPPPPTAAPEPNMVAPLISPIGHPMFSRIRLATPSDVPFIHKLIHQMAVFERLTHLFSATESGLASTLFTSRPFQSFTVFLLEVSRSPFPATITSSPSPDFTPFFKTHNLDLPIDDPESYNFSPDMLNDVVVAGFVLFFPNYSSFLSKPGFYIEDIFVREPYRRKGFGSMLLTAVAKQAVKMGYGRVEWVVLDWNVNAIKFYEQMGAQILQEWRVCRLTGDALEAFDQVNI
In the case of B3, the “stoichiometry N” value is reported as 2.

From doi:10.1101/2024.03.04.583282 (bioRxiv, 2024)
